# Experimental data published in the DeepSol protein solubility set.
# Test: soluble on expression in E. coli; label from the status in PepcDB or PDB records
row,Sequence,soluble on expression in E. coli
1,MLSDITIHNLGVIPSASLELSEGLTVLTGETGAGKTMVVTGLRLLAGGRAEAQRVRSGSSQAVVEGRFLLDSVAPESAEMARAVVSAAGGALDENGEVIVSRTVSAHGRSRAHLGGRSVPAASLVEFSKEVLTIHGQNDQLRLLNSDRQRDALDRFSQKISALMTVYSEAYRAWKNLSKDLQERQASKRELAQEVDRLEFAIREISEVDPQPGEEADLLVQIARLQDVDDLRAQAVGALSVIDGAAGVEGYATCDSSDADAASDLIGQALSSVRVSSDPTLQGVSQQLEAVTSILMEVSAQLGGFLDELPADPQMLDKLLQRQQALKQLTRKYASDIDGVIKWKLKAEQKLESIDVSPEALDQLKKETALAERKMNDAGMALRAARIEAAQELSNAVTKELHGLAMPKAMFSVVVHPTEPQPSGFDEVEFCLAPNNATDPRPLASSASGGELSRVMLALEVILSAGQHGNTLVFDEVDAGVGGRAAVEIGRRLARLAQNNQVIVVTHLPQVAAYADTHLHVAKDVGESTVTSGVEKLSEQRRVEDLARMLAGLEDTDTGRAHAKELFEKAQAENRAFRV,not soluble
2,MTGHWSYCDDDECGPNRWPTGQHQSPINIDLGEVERKDTHDGIKFVNYDHPIQGDIVNNGHSVQMTPELRSEHPEIYGGGLDQVYRLVQYHFHWGENDNEGSEHTLGGLRYPAELHLVHQGVEDPGKLAVVGVFLQLGKEGKALSNEERVLGKLCNPETVTRVENVRLSEKLPANKRSFWRYEGSLTTPPCSEIVTWTIFTEPVTVTHDQLELFRQVQDIEKRPIKKNYRPTQNLNDRKIVHIVAN,not soluble
3,MANAFGLSLGTALRRDPAEGPVRPQRPLGRLIWLHAPTRDSARPMAELGRRIILDEGFPVLLTTHVPVSSGGILIVQPPPPDTPAAVAAFLDHWRPDAAFMAEGELRPSLINSAFDRNVPLALVDGAAPRILPGRESWWPGQMRNLLAKFRHIFTLDEAAARAFRKAGSSSHVTQVAGRLEEGSLALPCTEAERAALARLLAPRQVWLAAGLPIEEEAAAIAAHHAALKLAHRMLLIVVPQEPDRAAAFAARCEAEGWKVARRAADEEPDADTEVFVADGMAELGLWYRLAPVTWLGGSLSVGCVLDPLEAASLGSALIHGPHFGPHGATLARLSAARASLPVASARGLAEALADLLAPDRVARLAHAGWAVASEGTEVTDRMVALAGRLVEREALEHHHHHH,not soluble
4,MKLYYKVGAASLAPHIILSEAGLPYELEAVDLKAKKTADGGDYFAVNPRGAVPALEVKPGTVITQNAAILQYIGDHSDVAAFKPAYGSIERARLQEALGFCSDLHAAFSGLFAPNLSEEARAGVIANINRRLGQLEAMLSDKNAYWLGDDFTQPDAYASVIIGWGVGQKLDLSAYPKALKLRERVLARPNVQKAFKEEGLN,soluble
5,MAYLEQLQAGLRYLGRAGESGRKSLDKVVAPVNGAISEIRGAAAELENLPGVSPEMAARLQRAMRGIGQAQGKVNRVVSTYDRASRALLGIDERLDALKVQVNSAAQAVGKVAGDISPTLAGVLPSWLLAPSATPPSEAAASLPHLLVLQPLTANAQPFYFNLNTAAFDALQRNSAYNWSGQVRLGRRPALQSVGMGEESILLKGAVFPLRRQVGNQEKVVGLEQLEALRRLAERREPLILSSGYGEVQMGLWCLVRISENQSALLGNGAPRKQTFDLEFKRYGDDLPNR,not soluble
6,MAHHHHHHMSEENNIRKGPSFVFHDIKKKRMREIILMCNKKKQKKMLLKSLNIKFIYEEKNKKRVKIHVDNFLPVSINSDMEIIKKYKEILYDDNYCNIYDINKLKIGKMKKILKDFFYDIFLFCKYIFYKFIYKCQNIINLFLEYKQIMLSHCINRVPYFIKVFSFSSLHILLKYSIRSFFKNYSFYKYIFTPNYKICFLCIHKNSYYSEIEKEDTSQICFDDVSTCQEINILGSEEYLRGLVTSSVGFIDNYDDKNRGNNFLEIFQKHMNIFDIKKDDVHFKINKYEQRIDIEKAFSHIKNNILQKYDERRREKKKDNDKLIRRVQNMYDDVENKIMSSLKKILDITNYDEEREKC,soluble
7,MKLNLKNPLIFFDLETTGVDLVRDRIVEISILKVMPDGSEECKTRRINPERPIPPESTAIHGIRDEDVKDCPPFRSVAKSLAQWIEGCDLAGFNSTRFDVPMLVEEFLRAGVDIDLRHRKLIDVQTIFHKMEPRTLEAATRFYCNRTLENAHSAEADTRATYDVFKAQLDRYEGTLENDMAFLADFSRQSRNVDFAGRLVYDDNDNVIINFGKYRGRKALDVLRTDSGYYGWIMDADFTLNTKQEFTRLRMSLNNPETK,soluble
8,MSLGSKIVVTGATGNVGTSVVRLLSEDPEVGTVLGLARRIPDWSPAKTEWAAVDLASEQSDLTSHFADADAVVHLAWAFQPTHDPATTWRTNVLGSIRVFEAVAAAGVPALVHASSVGAYSPGPKNHAVDESWPTHGWPDAAYCREKAYLERALDTFERDHPGIRVVRMRPAFLFKRESASEQRRIFGGRFLPGPAARPELLPFLPDVPGLRVQALHTDDAARAYRLAVRSADARGAFNLAAEPPVDAELLGELLGVRPVRLPRAAARSAIAAAWGMRLLPASPHLFDAVLRLPVMDCTRARVELGWGATRTATEVLEEFLRGLRQGAGADTEGHHHHHH,soluble
9,MSLERSLSVTILFQDVPVSVWEINKNTPQPDWVKNCFENNTMVWYDNRLKILVKAINPSPKRDVKLGLRDTMLGYYGGGFVMGNIGDYFDATNGRVLSKKKFYKQYVINEEGHHHHHH,not soluble
10,INYEKVGLKVGLEIHQQLNTKRKLFCHCPTILRDDEPDGEIVRVLRPSLSEMGEVDRAALIEARKGKKFIYQFYNDTTCLVELDEEPPHPPSEEALRIALEVALLMNMNVVDVAYTMRKIVIDGSNTSGFQRTIFLARDGYIETSEGKVGITSLCLEEDAARKIEDRGDAVVYNLDRLGIPLVEISTAPDIKTPKMAKEAARRIGEILRATGKVKRGLGTIRQDINISIKDGARIEVKGVQDLDLIEKVVENEVIRQLNLL,not soluble
11,MGYASKLALKICLASLCLFSALGAEHLEQKRNYIYKGEEAYNNKEYERAASFYKSAIKNGEPLAYVLLGIMYENGRGVPKDEKKAAEYFQKAVDNDIPRGYNNLGVMYKEGRGVPKDEKKAVEYFRIATEKGYTNAYINLGIMYMEGRGVPSNYVKATECFRKAMHKGNVEAYILLGDIYYSGNDQLGIEPDKDKAIVYYKMAADMSSSRAYEGLAESYQYGLGVEKDKKKAEEYMQKACDFDIDKNCKKKNTSSRLEHHHHHH,soluble
12,MEFAGTIFIELTFTPKVPRLNRDDLNKEMDRLDSSMAMRPIPPLPTESEYDYVHGSTMRQITPQCVSTSHEDKDEGQPYRNGNVFSMSSKSDTAVLANSNDPIILPPTFSASMGTTSTLETNDTAISNTSNTKFHFANLRKLKEKINIFKNPDSST,not soluble
13,VGAIMLDGKATRDEIFGDLKQRVAALDAAGRTPGLGTILVGDDPGSQAYVRGKHADCAKVGITSIRRDLPADISTATLNETIDELNANPDCTGYIVQLPLPKHLDENAALERVDPAKDADGLHPTNLGRLVLGTPAPLPCTPRGIVHLLRRYDISIAGAHVVVIGRGVTVGRPLGLLLTRRSENATVTLCHTGTRDLPALTRQADIVVAAVGVAHLLTADMVRPGAAVIDVGVSRTDDGLVGDVHPDVWELAGHVSPNPGGVGPLTRAFLLTNVVELAERR,soluble
14,MSLTVDFSRFPLAPGDRVLDLGCGAGRHAFECYRRGARVVALDQNAEEIREVAKWFAAMEEAGEAPAGATATAMEGDALALPFPDESFDVVIISEVMEHIPDDKGVLAEMVRVLKPGGRIAITVPRYGPEKVCWTLSDAYHEVEGGHIRIYRADQLLTRIREAGLKPYGTHHAHALHSPYWWLKCAFGVDNDKALPVRAYHKLLVWDIMKKPLATRVAEQALNPLIGKSFVAYATKPHLPPVDAEGHHHHHH,soluble
15,KKVIIIINPTSGGEAALDYKESLESKAKEYFDHVETKITQRAKDATHFAQNASEEKYDAVIVFGGDGTVNEVISGISEKNHIPKLGIIPGRTGNLITKLLEIN,not soluble
16,WGYECIGMFRSYQEINEYFDKYSITKYLGNTKENVHPGMLIYKDVRGQYDESTGTFGPADGIVDEQDYIKISHRASNPYGGTLNFGFSYKDFSISAQFGASWGAYSLVPTTMRKESYSEYSNVSAMWKDMFVYEDIYDANNIVTVAQNRNAKYPNIRYSSVNGAPSTFWKVSAATVQLRNMTVAYALPKEWLKIIGISSCRFNLTCQNVFNFLNPYPEGAWASWAGSYGYYPNLRKFTLGVNVSF,not soluble
17,MAHHHHHHMNHSPFLTALYTDVQSRLPLWTTRYVKPISNGTFAVSSTWTDDSGAQLQRLFIAVEASDTNCISEAVLAEWIAFVEAWQAAHKEDEVSCFVGFVDLAGTVSYYRCETAVAGAWRSKPDDHLTCR,not soluble
18,MLWKEYEEASSLTARVVKHLDKFDMIVQADKYEKTHEIDLQQFFTSTVGVLKMEPFATWDRELRENRMKRINKAE,not soluble
19,DEPILSFSPKTYSFRQDGRIKEVSVFTYHKKYNPDKHYIYVVRILREGQIEPSFVFRTFDEFQELHNKLSIIFPLWKLPGFPNRMVLGRTHIKDVAAKRKIELNSYLQSLMNASTDVAECDLVCTFFHPLLRDEKAEGIA,soluble
20,MAHHHHHHMSTTQAALFPFRHHWRVPVTLAINTTVPNGAPSATESGGCTQPQSPGEQAAAHAAVTPDGIDAVVTDFVFAQSGRRLLLVRGDSPPDLRLCLSEDSPNGPLSGALGAGIAVEASPLQQAHRALCTGAELIHHVSTLRDQQLEGHRPCDGDTRASALELCVAGYPQGHPLDRTWGATSAAYSAPAEAAATGSVATRDSSVAAARQRSLEFLRAFEEDFDAAEHAFTAAVRVAKRRACVVSAEKRSSDISVDDGTPSAASGEPRERARHLCTPQAVMPELKEPCRTLGRLGAVRRLWTSSSIYAPYVRAACIHRMLHEKVLLRSPSEPEHRRIRSGSFHGGAAAPVIVTQMITTAQGFTGYVDEIQRGLRAWAATAGGGEQPEPAGDGPQQQHPVHAAAPTALTPPISVIPGVLLPHPTDVHVLLRSLYYTKVIPSARMQKALEVYASELMIAWRQLADEPPRRKREPALQDDTFLQALTESNGSAATLEVSEDRVAQVEARVREVRRCASCRLTSVWLSETVDLLHDLQRHGQARLHLFTMFNDKVGVRVAQLLAAYDAPRGASAEQ,not soluble
21,MIITEQNMPEEKLQTLSLQVINGSELESGRAARCLFTQQGNVGHAPECHWSVQDRQQSIPAQAFTVILHDGTFCLRPQTAQLWLNQAKVTATSDLIQLRQGDEIQIGRLMVRVHLNRGDIPHYDEEMATPETIVTNRDMLTDTLLSTEGAPHYPGMTHRHQLADTVVNGFSADPLQALQSESLITTGDPLSGIAAVRPSAPLSDPASNGGINTPFMDLPPIYASPGDHNDDISAAEMAQRHLAVTPLLRGLGGSLTVSNSDDADDFLEEAGRTLQAAIKGLLDLQQQRNSLSDKHLRPLEDNPLRLNMDYATALDVMFAEGKSPVHLAAPAAVSESLRNVRHHEEANRAAIVESLRVLLDAFSPQNLLRRFVQYRRSHELRQPLDDAGAWQMYSHYYEELASDRQQGFEMLFNEVYAQVYDRVLREKQREPEA,soluble
22,MAHHHHHHMSKADENGNELMEIEEVAVSDGGAARFAAVDVKSGEERFNVIWQDSGKLMRFDEGENQWKERGQGTAKVLQRKDNTSKYMFVFRREGVGKLAAQHYLVKGMKVTKHKQGEKILVWSAFKDFTDDEEGFPENFVMRLSSKEAADKALAEMMGAIEKSSV,soluble
